In article PMC8405996, “A structurally preserved allosteric site in the MIF superfamily affects enzymatic activity and CD74 activation in D-dopachrome tautomerase” (The Journal of Biological Chemistry, 2021):

Target: the molecule itself
Assay: crystal structure; hanging-drop vapor diffusion at 20 °C; diffraction data at 100 K; molecular replacement; trimer of MIF-2 in the crystal

Protein	stoichiometry N	binding result
D-dopachrome tautomerase (MIF-2), wild type (enzyme, human, UniProt P30046 1-118, looked up, human D-dopachrome tautomerase (MIF-2), monomer of 117 amino acids with the catalytic Pro1 at the N terminus (initiating Met removed); Homotrimer; no tag is named; also called wt-MIF-2; DDT; source: E. coli BL21-Gold (DE3), purified (Q-Sepharose, Superdex 75)) MPFLELDTNLPANRVPAGLEKRLCAAAASILGKPADRVNVTVRPGLAMALSGSTEPCAQLSISSIGVVGTAEDNRSHSAHFFEFLTKELALGQDRILIRFFPLESWQIGKIGTVMTFL	3	–
MIF-2 P1G variant (enzyme, human, UniProt P30046 1-118, looked up, human D-dopachrome tautomerase (MIF-2) with P1G; the initiating Met was found kept in this variant (not cleaved in E. coli), so the chain begins Met-Gly1; also called P1G MIF-2; source: E. coli BL21-Gold (DE3), purified (Q-Sepharose, Superdex 75)) MGFLELDTNLPANRVPAGLEKRLCAAAASILGKPADRVNVTVRPGLAMALSGSTEPCAQLSISSIGVVGTAEDNRSHSAHFFEFLTKELALGQDRILIRFFPLESWQIGKIGTVMTFL	–	binds
